Measurements as given in patent publication US20050108782A1, “Transgenic RS1-/- animal and uses thereof” (priority 2003, published 2005).

T1: hSGLT1 (Homo sapiens, UniProt P13866)
T1 construct: expressed in transfected cells; host or cells: Xenopus laevis oocytes (cRNA injection)
T1 sequence (P13866 1-664): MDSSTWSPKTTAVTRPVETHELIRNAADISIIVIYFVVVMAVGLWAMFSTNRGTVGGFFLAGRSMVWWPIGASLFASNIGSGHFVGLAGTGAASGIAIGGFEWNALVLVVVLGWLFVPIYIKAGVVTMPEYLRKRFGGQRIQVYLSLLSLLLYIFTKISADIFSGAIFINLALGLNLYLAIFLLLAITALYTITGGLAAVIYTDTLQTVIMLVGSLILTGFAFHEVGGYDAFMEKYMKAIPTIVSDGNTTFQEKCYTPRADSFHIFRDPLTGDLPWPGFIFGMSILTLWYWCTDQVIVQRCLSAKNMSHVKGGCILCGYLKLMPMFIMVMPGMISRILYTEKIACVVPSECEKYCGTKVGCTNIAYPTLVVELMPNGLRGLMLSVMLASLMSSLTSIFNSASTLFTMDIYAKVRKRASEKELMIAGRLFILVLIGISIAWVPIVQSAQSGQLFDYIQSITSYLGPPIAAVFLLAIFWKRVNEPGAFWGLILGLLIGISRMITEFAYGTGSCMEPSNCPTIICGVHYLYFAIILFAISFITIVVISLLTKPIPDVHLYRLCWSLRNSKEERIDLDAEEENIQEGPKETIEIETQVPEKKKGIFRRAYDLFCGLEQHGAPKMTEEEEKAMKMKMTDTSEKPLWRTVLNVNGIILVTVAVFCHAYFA

B1: hRS1: human RS1 protein, expressed in Xenopus oocytes from injected hRS1-cRNA; regulator of SGLT1 (protein, UniProt Q92681 1-617, looked up)
Regulatory solute carrier …: MSSLPTSDGFNHPARSSGQSPDVGNPMSLARSVSASVCPIKPSDSDRIEPKAVKALKASAEFQLNSEKKEHLSLQDLSDHASSADHAPTDQSPAMPMQNSSEEITVAGNLEKSAERSTQGLKFHLHTRQEASLSVTSTRMHEPQMFLGEKDWHPENQNLSQVSDPQQHEEPGNEQYEVAQQKASHDQEYLCNIGDLELPEERQQNQHKIVDLEATMKGNGLPQNVDPPSAKKSIPSSECSGCSNSETFMEIDTAQQSLVTLLNSTGRQNANVKNIGALDLTLDNPLMEVETSKCNPSSEILNDSISTQDLQPPETNVEIPGTNKEYGHYSSPSLCGSCQPSVESAEESCPSITAALKELHELLVVSSKPASENTSEEVICQSETIAEGQTSIKDLSERWTQNEHLTQNEQCPQVSFHQAISVSVETEKLTGTSSDTGREAVENVNFRSLGDGLSTDKEGVPKSRESINKNRSVTVTSAKTSNQLHCTLGVEISPKLLAGEEDALNQTSEQTKSLSSNFILVKDLGQGIQNSVTDRPETRENVCPDASRPLLEYEPPTSHPSSSPAILPPLIFPATDIDRILRAGFTLQEALGALHRVGGNADLALLVLLAKNIVVPT

Columns and labels:
[1] = target: T1, hSGLT1; test: [14C]AMG uptake expressed by hSGLT1 in Xenopus laevis oocytes; type: cell-based
Description: (§1) Stage V-VI oocytes were removed from Xenopus laevis clawed toads, selected and injected with cRNAs or water as described earlier (Veyhl et al., (1994) J. Biol. Chem. 268, 25041-25053). Per oocyte […] of water (control) or water containing plasma membrane transporter cRNAs alone or together with different amounts of hRS1-cRNA were injected. For translation the injected oocytes were incubated for 2-3 days (16° C.) in ORi buffer (5 mM HEPES-Tris, pH 7.4, 100 mM NaCl, 3 mM KCl, 2 mM CaCl and 1 mM MgCl2) containing 50 mg/l gentamycin (Veyhl et al., (1994) J. Biol. Chem. 268, 25041-25053).
(§2) [^14C]-AMG uptake of expressed plasma membrane transporters in oocytes was measured as described earlier Veyhl et al., (1994) J. Biol. Chem. 268, 25041-25053. Each uptake value represents the mean±SEM (n=8-10 oocytes). All experiments were performed with at least 3 batches of Xenopus oocytes.
Dynamin, a member of structurally related but functionally heterogeneous family of GTPases, that is required for clathrin-mediated and other types of endocytosis. After GTP binding dynamin assembles to a ring around the neck of coated pits and induces fission and release of vesicles upon hydrolysis of GTP (Eccleston et al., (2002) Eur. Biophys. J. 31, 275-282.). […] Oocytes were injected with 2.5 ng of hSGLT1-cRNA or with 2.5 ng pf hSGLT1-cRNA plus 10 ng of hRS1-cRNA. In some experiments either 10 ng of wild-type (DyWt) dynamin cRNA or 10 ng of dominant gegative dynamin mutant (DyMu) cRNA were coinjected. After three days of incubation for expression, phlorizin inhibitable uptake of 50 μM of [^14C]AMG was measured over a time period of 15 min as described earlier (Lambotte et al., (1996) DNA Cell Biol. 15, 769-777).
(§3) According to the methods described in Example 11 Xenopus oocytes were injected with 2.5 ng of SGLT1-cRNA or with 2.5 ng of SGLT1-cRNA plus 10 ng of hRS1 and incubated three days for expression (FIG. 11). Then the oocytes were injected with 50 nl Ori buffer (controls) or with 50 nl Ori buffer containing 20 μM of the protein kinase C activator sn-1,2-dioctanoyl glycerol (DOG). After 30 min incubation the phlorizin inhibitable uptake of 50 μM [^14C]AMG was measured as in FIG. 10.

[2] = test system: hSGLT1 and hRS1; test: [14C]AMG uptake in Xenopus laevis oocytes coexpressing hSGLT1 and hRS1, with protein kinase C activation; type: cell-based, human; conditions: coexpression of hSGLT1 and hRS1; 50 nl Ori buffer containing 20 μM DOG injected, 30 min incubation; 50 μM [14C]AMG
Description: as §1, §2
as §3, with “10. […]” for “10.”

Molecule	uptake of AMG expressed by hSGLT1, change by DOG ([1]; hSGLT1 alone, 50 nl Ori buffer containing 20 μM DOG injected, 30 min incubation, 50 μM [14C]AMG)	expressed uptake of AMG, change by DOG [2]	expression of AMG uptake by hSGLT1 after coexpression of hRS1 ([1]; 2.5 ng SGLT1-cRNA plus 10 ng hRS1, three days, FIG. 11)	phlorizin inhibitable uptake of 50 μM [14C]AMG ([1]; 2.5 ng hSGLT1-cRNA plus 10 ng hRS1-cRNA, three days expression, hSGLT1 alone 56±7)	Km value of AMG uptake expressed by hSGLT1 ([1]; coexpression with hRS1, unpublished data not shown)	phlorizin inhibitable uptake of 50 μM [14C]AMG ([1]; hSGLT1-cRNA plus hRS1-cRNA, 10 ng dominant negative dynamin mutant (DyMu) cRNA coinjected)	phlorizin inhibitable uptake of 50 μM [14C]AMG ([1]; hSGLT1-cRNA plus hRS1-cRNA, 10 ng wild-type dynamin (DyWt) cRNA coinjected)	Vmax of AMG transport by hSGLT1 after coexpression with hRS1 ([1]; tracer uptake studies and electrical measurements, unpublished data not shown)
CCCCCCCC(=O)OC[C@H](CO)OC(=O)CCCCCCC [DOG, sn-1,2-dioctanoyl glycerol, reference compound]	increased	decreased						
B1			reduced	10±1.5 pmol/oocyte×15 min	does not change	37±3.5 pmol/oocyte×15 min	2.5 pmol/oocyte×15 min	decreased
